According to patent US6475744 (GENERAL HOSPITAL CORPORATION A MASSACHUSETTS, dated 2002):

B1: mCLOCK (other, mouse, UniProt O08785 1-855, looked up)
chain: MVFTVSCSKMSSIVDRDDSSIFDGLVEEDDKDKAKRVSRNKSEKKRRDQFNVLIKELGSMLPGNARKMDKSTVLQKSIDFLRKHKETTAQSDASEIRQDWKPTFLSNEEFTQLMLEALDGFFLAIMTDGSIIYVSESVTSLLEHLPSDLVDQSIFNFIPEGEHSEVYKILSTHLLESDSLTPEYLKSKNQLEFCCHMLRGTIDPKEPSTYEYVRFIGNFKSLTSVSTSTHNGFEGTIQRTHRPSYEDRVCFVATVRLATPQFIKEMCTVEEPNEEFTSRHSLEWKFLFLDHRAPPIIGYLPFEVLGTSGYDYYHVDDLENLAKCHEHLMQYGKGKSCYYRFLTKGQQWIWLQTHYYITYHQWNSRPEFIVCTHTVVSYAEVRAERRRELGIEESLPETAADKSQDSGSDNRINTVSLKEALERFDHSPTPSASSRSSRKSSHTAVSDPSSTPTKIPTDTSTPPRQHLPAHEKMTQRRSSFSSQSINSQSVGPSLTQPAMSQAANLPIPQGMSQFQFSAQLGAMQHLKDQLEQRTRMIEANIHRQQEELRKIQEQLQMVHGQGLQMFLQQSNPGLNFGSVQLSSGNSNIQQLTPVNMQGQVVPANQVQSGHISTGQHMIQQQTLQSTSTQQSQQSVMSGHSQQTSLPSQTPSTLTAPLYNTMVISQPAAGSMVQIPSSMPQNSTQSATVTTFTQDRQIRFSQGQQLVTKLVTAPVACGAVMVPSTMLMGQVVTAYPTFATQQQQAQTLSVTQQQQQQQQQPPQQQQQQQQSSQEQQLPSVQQPAQAQLGQPPQQFLQTSRLLHGNPSTQLILSAAFPLQQSTFPPSHHQQHQPQQQQQLPRHRTDSLTDPSKVQPQ
B2: human (h)MOP4 (other, UniProt Q99743 1-824, looked up)
chain: MDEDEKDRAKRASRNKSEKKRRDQFNVLIKELSSMLPGNTRKMDKTTVLEKVIGFLQKHNEVSAQTEICDIQQDWKPSFLSNEEFTQLMLEALDGFIIAVTTDGSIIYVSDSITPLLGHLPSDVMDQNLLNFLPEQEHSEVYKILSSHMLVTDSPSPEYLKSDSDLEFYCHLLRGSLNPKEFPTYEYIKFVGNFRSYNNVPSPSCNGFDNTLSRPCRVPLGKEVCFIATVRLATPQFLKEMCIVDEPLEEFTSRHSLEWKFLFLDHRAPPIIGYLPFEVLGTSGYDYYHIDDLELLARCHQHLMQFGKGKSCCYRFLTKGQQWIWLQTHYYITYHQWNSKPEFIVCTHSVVSYADVRVERRQELALEDPPSEALHSSALKDKGSSLEPRQHFNTLDVGASGLNTSHSPSASSRSSHKSSHTAMSEPTSTPTKLMAEASTPALPRSATLPQELPVPGLSQAATMPAPLPSPSSCDLTQQLLPQTVLQSTPAPMAQFSAQFSMFQTIKDQLEQRTRILQANIRWQQEELHKIQEQLCLVQDSNVQMFLQQPAVSLSFSSTQRPEAQQQLQQRSAAVTQPQLGAGPQLPGQISSAQVTSQHLLRESSVISTQGPKPMRSSQLMQSSGRSGSSLVSPFSSATAALPPSLNLTTPASTSQDASQCQPSPDFSHDRQLRLLLSQPIQPMMPGSCDARQPSEVSRTGRQVKYAQSQTVFQNPDAHPANSSSAPMPVLLMGQAVLHPSFPASQPSPLQPAQARQQPPQHYLQVQAPTSLHSEQQDSLLLSTYSQQPGTLGYPQPPPAQPQPLRPPRRVSSLSESSGLQQPPR

How the values were obtained:
CYC (Drosophila) = CYC (Drosophila) (UniProt O61734); experiment: cell-based or functional assay
syrian hamster (sh)BMAL1 = syrian hamster (sh)BMAL1 (syrian hamster, UniProt O88529 1-626); experiment: cell-based or functional assay
Chain of syrian hamster (sh)BMAL1 (O88529 whole entry): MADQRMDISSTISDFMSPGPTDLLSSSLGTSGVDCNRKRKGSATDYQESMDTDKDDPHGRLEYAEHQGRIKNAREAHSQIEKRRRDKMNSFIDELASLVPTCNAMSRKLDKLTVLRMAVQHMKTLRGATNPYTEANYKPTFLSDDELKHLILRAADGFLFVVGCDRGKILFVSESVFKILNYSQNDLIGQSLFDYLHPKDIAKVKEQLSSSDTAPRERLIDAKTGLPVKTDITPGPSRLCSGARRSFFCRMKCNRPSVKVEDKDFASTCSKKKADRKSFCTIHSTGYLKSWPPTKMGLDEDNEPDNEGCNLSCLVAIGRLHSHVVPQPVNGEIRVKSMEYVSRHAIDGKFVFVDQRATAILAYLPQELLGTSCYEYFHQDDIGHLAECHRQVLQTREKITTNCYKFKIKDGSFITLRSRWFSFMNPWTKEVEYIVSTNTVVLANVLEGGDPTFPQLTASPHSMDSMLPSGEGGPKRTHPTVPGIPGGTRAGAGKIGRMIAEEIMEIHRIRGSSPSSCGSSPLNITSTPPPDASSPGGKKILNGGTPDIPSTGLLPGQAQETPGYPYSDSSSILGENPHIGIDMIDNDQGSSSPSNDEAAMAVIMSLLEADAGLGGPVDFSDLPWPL

Chain of CYC (Drosophila) (O61734 whole entry): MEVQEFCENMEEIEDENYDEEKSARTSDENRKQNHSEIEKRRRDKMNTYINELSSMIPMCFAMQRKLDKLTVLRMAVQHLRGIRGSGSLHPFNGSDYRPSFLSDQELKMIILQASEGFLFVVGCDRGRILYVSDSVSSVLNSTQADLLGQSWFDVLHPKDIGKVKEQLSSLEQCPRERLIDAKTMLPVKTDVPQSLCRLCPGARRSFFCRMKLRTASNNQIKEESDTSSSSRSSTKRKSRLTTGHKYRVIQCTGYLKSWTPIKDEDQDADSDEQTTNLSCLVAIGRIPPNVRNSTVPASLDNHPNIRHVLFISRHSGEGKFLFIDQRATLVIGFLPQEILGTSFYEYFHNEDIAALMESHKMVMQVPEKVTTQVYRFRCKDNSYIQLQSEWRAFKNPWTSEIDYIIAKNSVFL

Molecule	transcriptional activity (per E box luciferase reporter, S2 cells) (CYC (Drosophila)) [fold]	transcriptional activation (vasopressin promoter luciferase reporter, NIH3T3 cells) (syrian hamster (sh)BMAL1) [fold increase]	transcriptional activity (per E box luciferase reporter, S2 cells) (syrian hamster (sh)BMAL1) [fold]
dCLOCK (from UniProt O61735 1-1027)	265	–	–
B1	–	10	1740
B2	–	37	539
